The results in this text go back to PMC11694665, “Open and closed structures of L-arginine oxidase by cryo-electron microscopy and X-ray crystallography” (Journal of Biochemistry, 2024).

In data set [1] the target is L-arginine oxidase from Pseudomonas sp. TPU 7192 (Pseudomonas sp. TPU 7192). As to the kind of experiment: mass photometry; 0.1 mg/ml in SEC buffer (20 mM HEPES pH 8.0, 50 mM NaCl), on a glass coverslip, 60 s, three repeats; molecular weight in solution.
For data set [2] the target is unchanged. Put plainly: cryo-EM structure; single-particle analysis, 2.5 mg/ml protein in 20 mM HEPES (pH 8.0), 50 mM NaCl, with bound FAD; D4 symmetry; octamer.
For data set [3] the target is unchanged. Put plainly: crystal structure; crystals grown at 20°C from 10 mg/ml protein, 20% w/v PEG 3350, 0.2 M potassium citrate tribasic (pH 8.3); four molecules in the asymmetric unit, octamer made by a symmetry mate.
In the next data set the test system is T1, NCCCC[C@H](N)C(=O)O.
T1 construct: full length, recombinant in E. coli BL21(DE3) from pET-15b; homooctamer (D4), one FAD per monomer; 4632 residues modelled in octamer (579 per chain)
Put plainly: peroxidase-coupled colourimetric assay (4-aminoantipyrine/TOOS), non-linear regression. Conditions: 100 mM Tris-HCl pH 7.0, 37 °C, substrate 0-10 mM. Format: biochemical, Pseudomonas putida. An excerpt:
(§1) peroxidase-coupled colourimetric assay (4-aminoantipyrine/TOOS), non-linear regression on PT-AROD (L-arginine oxidase from Pseudomonas sp. TPU 7192)

For another data set, the system named is T2, N=C(N)NCCC[C@H](N)C(=O)O.
T2 construct: full length, recombinant in E. coli BL21(DE3) from pET-15b; homooctamer (D4), one FAD per monomer; 4632 residues modelled in octamer (579 per chain)
The description is as above. The conditions noted are these: 100 mM Tris-HCl pH 7.0, 37 °C, substrate 0-2.5 mM. Format: biochemical, Pseudomonas putida.
Text: as §1

The target of data set [4] is T3, PT-AROD (L-arginine oxidase from Pseudomonas sp. TPU 7192) (Pseudomonas putida, UniProt A0A177SH44).
T3 construct: gene AYO28_23740; full length, recombinant in E. coli BL21(DE3) from pET-15b; homooctamer (D4), one FAD per monomer; 4632 residues modelled in octamer (579 per chain)
T3 sequence (A0A177SH44 1-589): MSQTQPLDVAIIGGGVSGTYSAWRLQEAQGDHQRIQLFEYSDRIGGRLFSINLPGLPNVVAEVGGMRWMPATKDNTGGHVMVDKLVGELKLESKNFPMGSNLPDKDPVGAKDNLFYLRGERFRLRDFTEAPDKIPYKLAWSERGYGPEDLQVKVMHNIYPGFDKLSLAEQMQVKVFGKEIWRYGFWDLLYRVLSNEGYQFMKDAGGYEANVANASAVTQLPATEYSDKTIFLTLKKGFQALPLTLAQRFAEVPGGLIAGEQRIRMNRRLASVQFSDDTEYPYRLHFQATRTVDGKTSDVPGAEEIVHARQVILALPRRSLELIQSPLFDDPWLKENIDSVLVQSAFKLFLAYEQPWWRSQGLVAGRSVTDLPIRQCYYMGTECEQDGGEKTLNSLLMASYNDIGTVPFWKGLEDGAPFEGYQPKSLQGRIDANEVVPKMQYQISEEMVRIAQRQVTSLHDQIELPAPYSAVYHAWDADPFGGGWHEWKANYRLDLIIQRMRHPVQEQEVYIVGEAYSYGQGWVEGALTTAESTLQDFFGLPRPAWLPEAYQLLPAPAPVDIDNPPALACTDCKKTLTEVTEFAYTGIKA
As to the kind of experiment: cryo-EM ([…] Å) and X-ray crystallography ([…] Å). In kind it is binding. The conditions noted are these: one FAD per monomer; copurified, 0.2 μM FAD in purification buffers.

Substrate in data set [5]: N=C(N)NCCC[C@H](N)C(=O)O
As to the kind of experiment: peroxidase-coupled colourimetric assay (4-aminoantipyrine/TOOS), non-linear regression. In kind it is biochemical, Pseudomonas putida. The conditions noted are these: 100 mM Tris-HCl pH 7.0, 37 °C, substrate 0-2.5 mM.
Text: as §1

Substrate in data set [6]: NCCCC[C@H](N)C(=O)O
Described as above. In kind it is biochemical, Pseudomonas putida. The conditions noted are these: 100 mM Tris-HCl pH 7.0, 37 °C, substrate 0-10 mM.
Text: as §1

As usually defined, the stoichiometry N is a count of units in the complex or per binding partner. On to “L-arginine oxidase from Pseudomonas sp. TPU 7192 (enzyme)”, for which the stoichiometry N in data set [1], in data set [2] and in data set [3] was 8 throughout.

For orientation: Km means the substrate concentration at which the rate is half of its maximum. A word on the kcat: it is the number of substrate molecules converted per active site and unit of time at saturation. The term kcat/Km denotes the second-order rate constant that governs catalysis at low substrate concentration. In the case of “PT-AROD (L-arginine oxidase from Pseudomonas sp. TPU 7192) (Pseudomonas putida; Q343E)”, in the data set on NCCCC[C@H](N)C(=O)O, the Km came to 6900 µM, the kcat came out at 0.5 s⁻¹ and the kcat/Km worked out at 72 M⁻¹ s⁻¹. In the data set with N=C(N)NCCC[C@H](N)C(=O)O, the Km worked out at 1700 µM, the kcat amounted to 10.4 s⁻¹ and the kcat/Km was found to be 6100 M⁻¹ s⁻¹.

For `Cc1cc2nc3c(=O)[nH]c(=O)nc-3n(C[C@H](O)[C@H](O)[C@H](O)COP(=O)(O)OP(=O)(O)OC[C@H]3O[C@@H](n4cnc5c(N)ncnc54)[C@H](O)[C@@H]3O)c2cc1C` [FAD], the “cryo-EM (2.3 Å) and X-ray crystallography (3.4 Å)” value in data set [4] is on record as “We obtained a cryo-EM map of PT-AROD in complex with FAD”.

Take “PT-AROD (L-arginine oxidase from Pseudomonas sp. TPU 7192) (Pseudomonas putida; E486A)”: in the data set on NCCCC[C@H](N)C(=O)O, the Km was determined as 1200 µM, the kcat came out at 1.1 s⁻¹ and the kcat/Km came out at 920 M⁻¹ s⁻¹. In the data set on N=C(N)NCCC[C@H](N)C(=O)O, the Km worked out at 190 µM, the kcat was 3.5 s⁻¹ and the kcat/Km was 18000 M⁻¹ s⁻¹.

B1: PT-AROD (L-arginine oxidase from Pseudomonas sp. TPU 7192) (Pseudomonas putida) (protein)
chain: T3 sequence (A0A177SH44 1-589)
notes: full length, recombinant in E. coli BL21(DE3) from pET-15b; homooctamer (D4), one FAD per monomer; 4632 residues modelled in octamer (579 per chain)
On to B1, for which, in data set [5], the Km is 480 µM, the kcat worked out at 6.2 s⁻¹ and the kcat/Km was 13000 M⁻¹ s⁻¹. Besides, in data set [6], the Km turned out to be 20000 µM, the kcat came out at 2.7 s⁻¹ and the specificity constant (kcat/Km) stood at 140 M⁻¹ s⁻¹.
